Here are results for 28 variants from the supplement of paper PMC7125110.

± gives the standard error. This sample holds only a part of the variants without activity. Some results are limits rather than exact numbers.

The chains are these.
B1: glmS ribozyme (parent)
chain: AUAAAAGCGCCAGAACUACAGAAAUGUAGUUGACGAGGAGGAGGUUUAUCGAAUUUUCGGCGGAUGCCUCCAAA

Holding throughout (settings): with glucosamine-6-phosphate
Series [1] covers variants of B1. Description: self-cleavage kobs at 640 uM GlcN6P; higher = faster cleavage; RNA array. In outline:
(§1)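 Glucosamine-6-phosphate in HEPES/KCl/Mg(OAc)2 buffer, at 40 μM to 10 mM, was flowed over barcoded ribozyme variants transcribed in situ by E. coli RNA polymerase on sequenced MiSeq chips. Tracking was through a hybridised Cy3 probe at 37 °C. kobs, kcat and KM came from exponential decay fits and weighted Michaelis–Menten fits of normalised per-tile medians.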

Series [2] covers variants of B1. Description: self-cleavage kobs at 2500 uM GlcN6P; higher = faster cleavage; RNA array. A digest of the protocol:
as §1

Variants of B1 are the subject of series [3]. Description: self-cleavage kobs at 10000 uM GlcN6P; higher = faster cleavage; RNA array. In outline:
as §1

A6C G7A G29A C71U: the “self-cleavage kobs at 640 uM GlcN6P” value in the series with glucosamine-6-phosphate [1] was less than 1e-05 s⁻¹. In addition, the “self-cleavage kobs at 2500 uM GlcN6P” value in the series with glucosamine-6-phosphate [2] is less than 1e-05 s⁻¹.
For C16G A36G G40A G63U, the “self-cleavage kobs at 640 uM GlcN6P” value in the series with glucosamine-6-phosphate [1] was less than 1e-05 s⁻¹. The “self-cleavage kobs at 2500 uM GlcN6P” value in the series with glucosamine-6-phosphate [2] is less than 1e-05 s⁻¹.
For the variant A12G U30A G44A, the “self-cleavage kobs at 640 uM GlcN6P” value with glucosamine-6-phosphate [1] was less than 1e-05 s⁻¹.
Consider C8G G43A, for which the “self-cleavage kobs at 640 uM GlcN6P” value with glucosamine-6-phosphate [1] is less than 1e-05 s⁻¹. Also, the “self-cleavage kobs at 2500 uM GlcN6P” value with glucosamine-6-phosphate [2] was less than 1e-05 s⁻¹.
In the case of A39U A42C C50G, the “self-cleavage kobs at 640 uM GlcN6P” value in the series with glucosamine-6-phosphate [1] is less than 1e-05 s⁻¹. In addition, the “self-cleavage kobs at 10000 uM GlcN6P” value in the series with glucosamine-6-phosphate [3] was less than 1e-05 s⁻¹.
Consider G43U A52C G66C C68G, for which, in the series with glucosamine-6-phosphate [1], the “self-cleavage kobs at 640 uM GlcN6P” value was less than 1e-05 s⁻¹. The “self-cleavage kobs at 2500 uM GlcN6P” value in the series with glucosamine-6-phosphate [2] is less than 1e-05 s⁻¹.
As for A6G G37A G41A, the “self-cleavage kobs at 640 uM GlcN6P” value with glucosamine-6-phosphate [1] is less than 1e-05 s⁻¹. Besides, the “self-cleavage kobs at 2500 uM GlcN6P” value in the series with glucosamine-6-phosphate [2] is less than 1e-05 s⁻¹. In the series with glucosamine-6-phosphate [3], the “self-cleavage kobs at 10000 uM GlcN6P” value is less than 1e-05 s⁻¹.
Take A39G G44A C58A: the “self-cleavage kobs at 640 uM GlcN6P” value with glucosamine-6-phosphate [1] is less than 1e-05 s⁻¹.
G37C G40C U49A: the “self-cleavage kobs at 640 uM GlcN6P” value in the series with glucosamine-6-phosphate [1] was less than 1e-05 s⁻¹. For the same variant, the “self-cleavage kobs at 2500 uM GlcN6P” value with glucosamine-6-phosphate [2] was less than 1e-05 s⁻¹.
In the case of G62A G66C C67A, in the series with glucosamine-6-phosphate [1], the “self-cleavage kobs at 640 uM GlcN6P” value was less than 1e-05 s⁻¹.
For the variant C16U A53G C70A, the “self-cleavage kobs at 640 uM GlcN6P” value with glucosamine-6-phosphate [1] was 0.000224 ± 3.5e-05 s⁻¹. In the series with glucosamine-6-phosphate [2], the “self-cleavage kobs at 2500 uM GlcN6P” value worked out at 0.000232 ± 6.5e-05 s⁻¹.
With C34U A48U A64U, the “self-cleavage kobs at 640 uM GlcN6P” value with glucosamine-6-phosphate [1] was less than 1e-05 s⁻¹. Further, the “self-cleavage kobs at 2500 uM GlcN6P” value with glucosamine-6-phosphate [2] was less than 1e-05 s⁻¹.
A12U A15G G41A C61A: the “self-cleavage kobs at 640 uM GlcN6P” value with glucosamine-6-phosphate [1] was less than 1e-05 s⁻¹.
G29C G37C C68G: in the series with glucosamine-6-phosphate [1], the “self-cleavage kobs at 640 uM GlcN6P” value turned out to be 7.66e-05 ± 3.4e-05 s⁻¹.
For the variant A6G A39U C70A, the “self-cleavage kobs at 640 uM GlcN6P” value with glucosamine-6-phosphate [1] was less than 1e-05 s⁻¹.
G41A U57C C67A: the “self-cleavage kobs at 640 uM GlcN6P” value with glucosamine-6-phosphate [1] is less than 1e-05 s⁻¹. The “self-cleavage kobs at 2500 uM GlcN6P” value in the series with glucosamine-6-phosphate [2] was less than 1e-05 s⁻¹.
For the variant C10A U31A U56C, in the series with glucosamine-6-phosphate [1], the “self-cleavage kobs at 640 uM GlcN6P” value is less than 1e-05 s⁻¹. Besides, the “self-cleavage kobs at 2500 uM GlcN6P” value in the series with glucosamine-6-phosphate [2] is less than 1e-05 s⁻¹. Further, the “self-cleavage kobs at 10000 uM GlcN6P” value with glucosamine-6-phosphate [3] is less than 1e-05 s⁻¹.
Consider G9U G29A U46A G51U C67U, for which the “self-cleavage kobs at 640 uM GlcN6P” value with glucosamine-6-phosphate [1] was less than 1e-05 s⁻¹. The “self-cleavage kobs at 2500 uM GlcN6P” value with glucosamine-6-phosphate [2] is less than 1e-05 s⁻¹.
As to G29U A33U G43C G60C G62U C71G, in the series with glucosamine-6-phosphate [1], the “self-cleavage kobs at 640 uM GlcN6P” value was less than 1e-05 s⁻¹. Further, the “self-cleavage kobs at 2500 uM GlcN6P” value with glucosamine-6-phosphate [2] was less than 1e-05 s⁻¹.
Turning to U57C C61U G63A, the “self-cleavage kobs at 640 uM GlcN6P” value with glucosamine-6-phosphate [1] is less than 1e-05 s⁻¹. In the series with glucosamine-6-phosphate [2], the “self-cleavage kobs at 2500 uM GlcN6P” value is less than 1e-05 s⁻¹. In addition, the “self-cleavage kobs at 10000 uM GlcN6P” value with glucosamine-6-phosphate [3] was less than 1e-05 s⁻¹.
G43U G62C C67A: the “self-cleavage kobs at 640 uM GlcN6P” value with glucosamine-6-phosphate [1] was less than 1e-05 s⁻¹. Besides, the “self-cleavage kobs at 2500 uM GlcN6P” value with glucosamine-6-phosphate [2] is less than 1e-05 s⁻¹. Besides, in the series with glucosamine-6-phosphate [3], the “self-cleavage kobs at 10000 uM GlcN6P” value is less than 1e-05 s⁻¹.
On to G38A G40U G43A A52C, for which, in the series with glucosamine-6-phosphate [1], the “self-cleavage kobs at 640 uM GlcN6P” value was less than 1e-05 s⁻¹.
For G35C G37U A64G C68U, the “self-cleavage kobs at 640 uM GlcN6P” value with glucosamine-6-phosphate [1] was less than 1e-05 s⁻¹.
Take U30A U31C G32A: the “self-cleavage kobs at 640 uM GlcN6P” value in the series with glucosamine-6-phosphate [1] came out at 6.3e-05 ± 1.6e-05 s⁻¹. Further, the “self-cleavage kobs at 2500 uM GlcN6P” value with glucosamine-6-phosphate [2] came to 0.000298 ± 5.8e-05 s⁻¹.
As to U47C A52G G66A, in the series with glucosamine-6-phosphate [1], the “self-cleavage kobs at 640 uM GlcN6P” value was 5.64e-05 ± 1.2e-05 s⁻¹. For the same variant, in the series with glucosamine-6-phosphate [2], the “self-cleavage kobs at 2500 uM GlcN6P” value is 0.000112 ± 2.4e-05 s⁻¹.
The like results for C10G G40C C71G were, in that order, less than 1e-05 s⁻¹ and less than 1e-05 s⁻¹.
For U30A C70G C71U the same measures were 5.91e-05 ± 2.5e-05 s⁻¹ and 8.51e-05 ± 2.9e-05 s⁻¹.
As to A12C U31C A39G, the “self-cleavage kobs at 640 uM GlcN6P” value with glucosamine-6-phosphate [1] is 0.000185 ± 3.9e-05 s⁻¹. Further, the “self-cleavage kobs at 2500 uM GlcN6P” value with glucosamine-6-phosphate [2] came to 0.00135 ± 0.00023 s⁻¹. The “self-cleavage kobs at 10000 uM GlcN6P” value with glucosamine-6-phosphate [3] came out at 0.00124 ± 0.00028 s⁻¹.
